T1: B-cell activating factor (BAFF) receptor (human, UniProt Q96RJ3 7-71, limits assumed)
T1 construct: also called TNFRSF13C; BLyS receptor 3
T1 sequence: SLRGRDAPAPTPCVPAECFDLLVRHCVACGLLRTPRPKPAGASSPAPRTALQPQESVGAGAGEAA


Biological target: T1, B-cell activating factor (BAFF) receptor
Assay: method not stated; column heads (Kdis, Full X^2, Full R^2) look like bio-layer interferometry output

Kd	koff	kon	Binder
3.4 nM	0.0034 s⁻¹	990000 M⁻¹ s⁻¹	H90-5 anti-BAFF receptor monoclonal antibody (antibody, V domains shown, Humanized form of C90; also called H90-5 mAb) VH: EVQLQESGPGLVKPSQTLSLTCTVSGDSITSGYWNWIRQHPGKGLEYIGYISYSGSTYYNPSLKSRVTISRDTSKNQYSLKLSSVTAADTAVYYCASPNYPFYAMDYWGQGTLVTVSS VL: DIVLTQSPATLSLSPGERATLSCRASESVDNYGISFMNWFQQKPGQAPRLLIYAASNRATGIPARFSGSGSGTDFTLTISSLEPEDFAVYYCQQSKEVPWTFGGGTKVEIKR
0.95 nM	0.00082 s⁻¹	860000 M⁻¹ s⁻¹	H90-11 anti-BAFF receptor monoclonal antibody (antibody, V domains shown, same heavy chain variable region as H90-5; also called H90-11 mAb) VH: EVQLQESGPGLVKPSQTLSLTCTVSGDSITSGYWNWIRQHPGKGLEYIGYISYSGSTYYNPSLKSRVTISRDTSKNQYSLKLSSVTAADTAVYYCASPNYPFYAMDYWGQGTLVTVSS VL: DIQMTQSPDSLAVSLGERATINCKSSQSVLYSSNNKNYLAWYQQKPGQPPKLLIYWASIRESGVPDRFSGSGSGTDFTLTISSLQPEDFATYYCQQSYSTPWTFGQGTKLEIKR

Source: patent US20210261676A1 (YINNUOLAI BIOTECH, published 2021)
